Measured values published in US20160304622A1 (GENEFRONTIER, published 2016).

Tests used:
Experiment in all cases: immunoblotting after reducing SDS-PAGE
[1] = molecular target: T1, recombinant human ADAM10 (R&D Systems) (human, UniProt O14672 214-672, limits assumed)
T1 sequence (looked up): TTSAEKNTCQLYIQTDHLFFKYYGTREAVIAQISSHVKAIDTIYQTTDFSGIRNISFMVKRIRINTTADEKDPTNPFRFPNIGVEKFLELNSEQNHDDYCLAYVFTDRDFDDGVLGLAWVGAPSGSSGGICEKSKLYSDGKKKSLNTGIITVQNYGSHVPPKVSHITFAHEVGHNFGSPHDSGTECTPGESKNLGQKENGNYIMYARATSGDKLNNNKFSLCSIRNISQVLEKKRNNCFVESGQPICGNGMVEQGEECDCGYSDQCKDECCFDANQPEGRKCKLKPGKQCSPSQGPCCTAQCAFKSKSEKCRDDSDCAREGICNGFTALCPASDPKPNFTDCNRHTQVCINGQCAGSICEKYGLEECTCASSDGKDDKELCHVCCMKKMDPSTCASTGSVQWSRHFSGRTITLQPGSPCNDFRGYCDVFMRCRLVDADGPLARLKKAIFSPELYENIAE
Excerpt: (§1) Recombinant proteins of human ADAMTS1 (R&D Systems), ADAMTS4, ADAMTS5 (R&D Systems), ADAMTS15 (R&D Systems), ADAM10 (R&D Systems), ADAM12 (Mochida Pharmaceutical Co., Ltd., Tokyo, Japan), ADAM17 (R&D Systems) and MMP-13 (Millipore, Billerica, Mass.) and purified human MMP-1, MMP-2, MMP-3 and MMP-9 (Daiichi Fine Chemical, Co., Ltd., Toyama, Japan) were subjected to sodium dodecyl sulfate-polyacrylamide gel electrophoresis (SDS-PAGE) under reducing conditions, and the samples resolved on the gels were transferred onto polyvinylidene difluoride (PVDF) membranes. […] After washing with phosphate buffered saline containing 0.1% Tween 20, the membranes were reacted with horseradish peroxidase-conjugated secondary antibody against human IgG (Invitrogen, Carlsbad, Calif.) for 1 h at room temperature. A chemiluminescence reagent (Pierce ECL western blotting substrate; Thermo Fisher Scientific, Waltham, Mass.) was used to make the labeled protein bands visible. All the samples were also examined on silver-stained gels, which were prepared by silver stain kit (Cosmo Bio Co., Ltd, […].).

[2] = molecular target: purified human MMP-3 (Daiichi Fine Chemical) (human, UniProt P08254 18-477, limits assumed)
Excerpt: as §1

[3] = molecular target: recombinant human MMP-13 (Millipore) (human, UniProt P45452 20-471, limits assumed)
Excerpt: as §1

[4] = molecular target: T2, purified human MMP-2 (Daiichi Fine Chemical) (human, UniProt P08253 30-660, limits assumed)
T2 sequence (looked up): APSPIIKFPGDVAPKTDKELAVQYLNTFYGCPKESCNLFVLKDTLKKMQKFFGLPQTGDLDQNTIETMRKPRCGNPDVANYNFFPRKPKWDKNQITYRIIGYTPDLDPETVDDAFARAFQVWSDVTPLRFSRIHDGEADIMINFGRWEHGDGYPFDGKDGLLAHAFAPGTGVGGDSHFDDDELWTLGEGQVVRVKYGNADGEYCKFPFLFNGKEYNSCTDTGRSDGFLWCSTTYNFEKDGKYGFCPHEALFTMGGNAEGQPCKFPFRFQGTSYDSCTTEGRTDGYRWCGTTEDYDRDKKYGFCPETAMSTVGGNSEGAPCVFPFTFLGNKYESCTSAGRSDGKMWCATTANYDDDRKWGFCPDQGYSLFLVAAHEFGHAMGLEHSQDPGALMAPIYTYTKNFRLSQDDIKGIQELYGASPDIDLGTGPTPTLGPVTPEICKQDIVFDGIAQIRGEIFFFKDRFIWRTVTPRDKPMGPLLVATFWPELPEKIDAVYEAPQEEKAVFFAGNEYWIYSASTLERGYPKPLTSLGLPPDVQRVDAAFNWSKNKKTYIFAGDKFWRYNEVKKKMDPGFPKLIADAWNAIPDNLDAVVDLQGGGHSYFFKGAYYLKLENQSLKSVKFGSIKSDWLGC
Excerpt: as §1

[5] = molecular target: recombinant human ADAM17 (R&D Systems) (human, UniProt P78536 215-671, limits assumed)
Excerpt: as §1

[6] = molecular target: T3, recombinant human ADAM12 (Mochida Pharmaceutical Co., Ltd.) (human, UniProt O43184 208-708, limits assumed)
T3 sequence (looked up): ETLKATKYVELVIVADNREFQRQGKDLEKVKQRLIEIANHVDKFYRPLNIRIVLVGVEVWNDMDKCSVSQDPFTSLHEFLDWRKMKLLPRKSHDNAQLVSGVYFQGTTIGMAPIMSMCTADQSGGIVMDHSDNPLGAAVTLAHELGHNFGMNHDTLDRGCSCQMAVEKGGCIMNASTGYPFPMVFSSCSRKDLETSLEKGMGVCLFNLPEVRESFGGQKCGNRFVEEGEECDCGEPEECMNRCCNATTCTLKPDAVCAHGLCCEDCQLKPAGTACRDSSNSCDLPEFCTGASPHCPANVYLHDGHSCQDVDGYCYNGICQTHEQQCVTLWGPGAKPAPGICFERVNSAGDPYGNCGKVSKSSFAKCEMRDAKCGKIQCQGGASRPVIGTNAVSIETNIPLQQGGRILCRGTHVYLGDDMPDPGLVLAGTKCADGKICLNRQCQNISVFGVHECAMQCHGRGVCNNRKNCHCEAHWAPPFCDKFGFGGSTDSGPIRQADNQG
Excerpt: as §1

[7] = molecular target: purified human MMP-9 (Daiichi Fine Chemical) (human, UniProt P14780 20-707, limits assumed)
Excerpt: as §1

Measured: binding result

recombinant human ADAM17 (R&D Systems), sequence (P78536 215-671 limits assumed): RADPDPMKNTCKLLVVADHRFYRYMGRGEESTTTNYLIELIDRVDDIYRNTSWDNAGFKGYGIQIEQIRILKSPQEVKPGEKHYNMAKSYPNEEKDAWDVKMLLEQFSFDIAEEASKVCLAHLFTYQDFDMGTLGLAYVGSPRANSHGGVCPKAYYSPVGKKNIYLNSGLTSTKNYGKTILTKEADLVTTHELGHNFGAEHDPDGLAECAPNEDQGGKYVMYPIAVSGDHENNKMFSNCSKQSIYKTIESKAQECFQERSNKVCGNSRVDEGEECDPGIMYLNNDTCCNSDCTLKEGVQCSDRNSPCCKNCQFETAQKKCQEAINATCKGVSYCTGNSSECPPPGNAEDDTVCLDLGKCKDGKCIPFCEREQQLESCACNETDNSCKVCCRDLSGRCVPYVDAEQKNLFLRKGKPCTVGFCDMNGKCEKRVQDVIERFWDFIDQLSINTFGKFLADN
purified human MMP-3 (Daiichi Fine Chemical), sequence (P08254 18-477 limits assumed): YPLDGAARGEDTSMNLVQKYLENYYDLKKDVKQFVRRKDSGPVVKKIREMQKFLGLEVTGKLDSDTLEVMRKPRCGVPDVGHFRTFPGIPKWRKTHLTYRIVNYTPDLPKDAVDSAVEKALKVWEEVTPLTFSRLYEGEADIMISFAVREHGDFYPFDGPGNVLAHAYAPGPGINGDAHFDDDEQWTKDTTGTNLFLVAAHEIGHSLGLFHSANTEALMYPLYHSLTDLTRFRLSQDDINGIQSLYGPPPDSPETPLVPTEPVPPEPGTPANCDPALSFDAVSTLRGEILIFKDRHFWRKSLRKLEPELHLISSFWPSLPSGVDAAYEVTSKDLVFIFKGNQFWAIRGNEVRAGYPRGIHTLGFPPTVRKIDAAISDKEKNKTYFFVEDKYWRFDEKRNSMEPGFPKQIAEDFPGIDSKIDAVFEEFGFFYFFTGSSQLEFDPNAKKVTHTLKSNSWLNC
purified human MMP-9 (Daiichi Fine Chemical), sequence (P14780 20-707 limits assumed): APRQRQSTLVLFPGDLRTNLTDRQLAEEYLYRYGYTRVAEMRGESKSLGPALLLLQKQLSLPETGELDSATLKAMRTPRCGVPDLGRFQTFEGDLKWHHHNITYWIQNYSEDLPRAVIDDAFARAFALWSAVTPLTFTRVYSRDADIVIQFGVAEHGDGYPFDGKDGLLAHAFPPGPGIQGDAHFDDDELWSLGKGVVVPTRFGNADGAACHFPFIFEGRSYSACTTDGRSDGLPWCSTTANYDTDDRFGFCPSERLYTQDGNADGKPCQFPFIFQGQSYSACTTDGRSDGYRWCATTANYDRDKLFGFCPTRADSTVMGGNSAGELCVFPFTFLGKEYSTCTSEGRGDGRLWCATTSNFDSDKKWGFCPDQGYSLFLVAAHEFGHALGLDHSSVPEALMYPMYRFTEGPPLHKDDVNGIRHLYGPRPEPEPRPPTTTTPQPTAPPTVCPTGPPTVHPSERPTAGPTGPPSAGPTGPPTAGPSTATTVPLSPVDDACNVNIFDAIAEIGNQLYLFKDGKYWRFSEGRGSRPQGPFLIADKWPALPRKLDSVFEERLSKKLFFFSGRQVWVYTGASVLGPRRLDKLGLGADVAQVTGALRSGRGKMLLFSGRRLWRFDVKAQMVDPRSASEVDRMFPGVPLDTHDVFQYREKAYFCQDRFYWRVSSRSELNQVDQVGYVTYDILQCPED

B1: Fab of clone 237-53 (Fab, V domains shown)
VH: QVQLVQSGAEVKKPGSSVKVSCKASGGTFSSFAISWVRQAPGQGLEWMGGIFPIFGQANYAQKFQGRVTITADESTSTAYMELSSLRSEDTAVYYCARFSDWWEWQMDYWGQGTLVTVSS
VL: DIVMTQSPDSLAVSLGERATINCRSSQSILYSSNNNYLAWYQQKPGQPPKLLIHTASARESGVPDRFSGSGSGTDFTLTISSLQAEDVAVYYCQQYYSVSITFGQGTKVEIKR
no binding (tested: 5 µg/ml): [1] | [2] | [3] | [4] | [5] | [6] | [7]
